In the supplement of paper PMC12042874:
± gives the uncertainty stated by the source.

Experiment: amyloid nucleation score (Sup35N fusion, yeast selection) (log enrichment); library NNK3; higher = more nucleation; inactive = no reads after selection
Procedure, shortened: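 For the nucleation score, DiMSum gave the log enrichment of output over input reads, centred on the mode score of non-aggregating sequences. Psi-negative yeast expressing Sup35N fused to peptides of 20 random codons were induced with 100 μM copper sulfate for 24 hours and grown 7 days at 30°C on medium lacking adenine and uracil. Input and output plasmid inserts were Illumina-sequenced, and sequences with under 100 input reads were excluded.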

FRNSLQ
amyloid nucleation score: -0.725 ± 1.1

FRSAYDYNFC
amyloid nucleation score: inactive

FRSRRARGKNGIEMRILRHQ
amyloid nucleation score: -0.109 ± 0.69

FRSVTTVVNVEKVRVY
amyloid nucleation score: inactive

FRVHLFFGKWRVVVCTR
amyloid nucleation score: inactive

FRVTMMSACRLDSIGLDCSC
amyloid nucleation score: 1.25 ± 0.086

FSAIWMSRQSYLRINGSPAF
amyloid nucleation score: 0.088 ± 0.29

FSAKDFSNVYRSPSMF
amyloid nucleation score: inactive

FSCSDLWGRSTLDKGYSFFR
amyloid nucleation score: inactive

FSCVGGGSSNIWREVTDTCS
amyloid nucleation score: inactive

FSFFRGTRLGKSARIAERFE
amyloid nucleation score: inactive

FSGVLLNVYYGIHYTISIYR
amyloid nucleation score: inactive

FSITSADGCCSHLLRMYTNG
amyloid nucleation score: inactive

FSIVELTLSRLK
amyloid nucleation score: inactive

FSLGVWSNPDWVRCSHWFIF
amyloid nucleation score: 1.28 ± 0.14

FSLSPIFWYAG
amyloid nucleation score: inactive

FSMLWILSDYLSYSCNLVFY
amyloid nucleation score: inactive

FSREYP
amyloid nucleation score: inactive

FSRKDTYFLMGIFKLNLRYL
amyloid nucleation score: inactive

FSRMPSIKCMNCMCKLFSRK
amyloid nucleation score: 1.06 ± 0.11

FSRYDRDLKGSLSGRSYFSA
amyloid nucleation score: inactive

FSSFLISYRYLIVFRQMVSI
amyloid nucleation score: inactive

FSSMANNIL
amyloid nucleation score: inactive

FSSVGRDDYCNGLM
amyloid nucleation score: inactive

FSTMKLISMHCRVS
amyloid nucleation score: inactive

FTDLTVNPNYNFYMCSLNRL
amyloid nucleation score: 2.72 ± 0.054

FTLLIYCYYLYYRCFCYVVR
amyloid nucleation score: inactive

FTLLVMS
amyloid nucleation score: inactive

FTLNVIF
amyloid nucleation score: 1.9 ± 0.069

FTLWYVFRCVRCNKVCSGTG
amyloid nucleation score: 0.087 ± 0.26

FTNLMLTTMCSLTLLTRGFP
amyloid nucleation score: inactive

FTVSFRYSLCCRDGDGESEC
amyloid nucleation score: 1.97 ± 0.087

FTYAC
amyloid nucleation score: inactive

FTYCRASRSITMQYVCVICT
amyloid nucleation score: inactive

FTYTEMRLGIKFSTWRQ
amyloid nucleation score: 1.03 ± 0.14

FVCRNLTFPMGHQSIMSMWD
amyloid nucleation score: -0.117 ± 0.75

FVDLHCSYRCIYGCCHFRIR
amyloid nucleation score: inactive

FVESIAVLKLFNTVKWITFF
amyloid nucleation score: inactive

FVEVRVD
amyloid nucleation score: inactive

FVFIFWTLFGRSRVDVASNM
amyloid nucleation score: inactive

FVGSLLGKSKFLGLHCCKEV
amyloid nucleation score: -0.08 ± 0.66

FVHDFTFEGKSMVVRLNCSA
amyloid nucleation score: inactive

FVIGRI
amyloid nucleation score: inactive

FVKCFNGAFWNEGPFCYLCG
amyloid nucleation score: 0.331 ± 0.32

FVKLIYWLGAWVSTLCG
amyloid nucleation score: inactive

FVLSMECSSRSSPSHTRDCA
amyloid nucleation score: -0.083 ± 0.33

FVMGGGNGGHVGYMCFCEEV
amyloid nucleation score: inactive

FVMLVSEYGKELYIIGRPGA
amyloid nucleation score: inactive

FVMSFAN
amyloid nucleation score: inactive

FVNLAGLFGSRGTNLLCLGE
amyloid nucleation score: inactive

FVNQFLQKFMNLDKYIKLSH
amyloid nucleation score: inactive

FVQRWCYGGKCNGCVGSSGG
amyloid nucleation score: inactive

FVSFGLGTMFDLRA
amyloid nucleation score: inactive

FVSLHTRLGDLHDVVCTLVF
amyloid nucleation score: inactive

FVSLSRNLNCTPRL
amyloid nucleation score: inactive

FVSSVASFVSHKLVMKLSAM
amyloid nucleation score: inactive

FVTVVGGLRWNVTFSERWSV
amyloid nucleation score: 0.081 ± 0.61

FVVCSAM
amyloid nucleation score: inactive

FVYDMHKHQIALRQVSSCEG
amyloid nucleation score: inactive

FWFLLWKRKDTLWAFR
amyloid nucleation score: inactive

FWGSTWSLRVL
amyloid nucleation score: inactive

FWKLNFITIMCG
amyloid nucleation score: -0.34 ± 1

FWLLIIVF
amyloid nucleation score: inactive

FWLYYNFQFLDDC
amyloid nucleation score: inactive

FWMIVYMNNSLI
amyloid nucleation score: inactive

FYDHRIRSCGLVFIKECVTP
amyloid nucleation score: inactive

FYELEIV
amyloid nucleation score: inactive

FYLALIYNICFADRKLVGVC
amyloid nucleation score: inactive

FYTMELISVQRI
amyloid nucleation score: inactive

GAFCSND
amyloid nucleation score: inactive

GAGRNFGTVCL
amyloid nucleation score: inactive

GASKHT
amyloid nucleation score: 0.319 ± 0.33

GAYSGLCSILGSFLGLSAVK
amyloid nucleation score: inactive

GCFNSCILYVLRLSIASVVS
amyloid nucleation score: inactive

GCIDEDCGVLIIKFYNIRRY
amyloid nucleation score: 0.118 ± 0.59

GCIVFCCRTLVNFDVVVYWF
amyloid nucleation score: inactive

GCNACVTSTCIRVVCGNLKC
amyloid nucleation score: 0.715 ± 0.3

GCNLTYNVIGFGLYMKFRDE
amyloid nucleation score: 1.85 ± 0.069

GCSGVVVGCWRDPRICWLWW
amyloid nucleation score: inactive

GCSLTWAVAEALTILVNAYT
amyloid nucleation score: inactive

GCVCQLR
amyloid nucleation score: inactive

GCWNVMRRCVLLILPESYLV
amyloid nucleation score: inactive

GDCCHMADKTGGGTNRQIYH
amyloid nucleation score: inactive

GDHYGVEYSHPL
amyloid nucleation score: inactive

GDMVCFVLMKALV
amyloid nucleation score: inactive

GDPNPHYL
amyloid nucleation score: inactive

GDRLFLKASG
amyloid nucleation score: inactive

GDRVSEVTDCVFQAISIRCA
amyloid nucleation score: inactive

GDYDTMAEVKPFLDEKC
amyloid nucleation score: inactive

GEFYCVVLRQYVWAQDDAG
amyloid nucleation score: inactive

GEISWDC
amyloid nucleation score: 0.283 ± 0.3

GELKFLVLNRFE
amyloid nucleation score: inactive

GENWDCTCVADQCRNWTCYL
amyloid nucleation score: 0.282 ± 0.81

GERFAVTSVSDHVTDKKTLS
amyloid nucleation score: 1.77 ± 0.093

GESYDCLLLHSRVWLSVVMG
amyloid nucleation score: inactive

GEWLCVFFSWPSGSPIVPWE
amyloid nucleation score: inactive

GEYMRLYVSVTGYTVYYSVR
amyloid nucleation score: 0.882 ± 0.2

GFAGMLYDLLPFGNWSLPSH
amyloid nucleation score: -0.127 ± 0.75

GFDLEVNTGNVVGFEDSAGQ
amyloid nucleation score: inactive

GFEAPWA
amyloid nucleation score: inactive

GFEPRRYP
amyloid nucleation score: -0.646 ± 1.3

GFEVNKACQLIEYPLFFTRL
amyloid nucleation score: inactive

GFGHGLKFRPRDRWGSIYPY
amyloid nucleation score: inactive

GFIDVPG
amyloid nucleation score: inactive

GFIHWRGAIWVSL
amyloid nucleation score: -0.65 ± 1.9

GFKVVSSLDFSCG
amyloid nucleation score: 0.55 ± 0.31

GFKVVYKIWLPASRSACDPW
amyloid nucleation score: 1.31 ± 0.13

GFLCDGGN
amyloid nucleation score: 0.149 ± 0.51

GFLPA
amyloid nucleation score: inactive

GFLVNSISFSKSCYEHTIVW
amyloid nucleation score: inactive

GFRYLRTDNYMPCRGESVGW
amyloid nucleation score: inactive

GFSDLCQHYFQYLVK
amyloid nucleation score: inactive

GFSLFYYL
amyloid nucleation score: inactive

GFTVG
amyloid nucleation score: inactive

GFWINVMISKTLRYGSKAWC
amyloid nucleation score: inactive

GFYTVFCIMQSAEGLDGTVW
amyloid nucleation score: 1.26 ± 0.12

GFYVRRGCLWGGYNHVFAIF
amyloid nucleation score: inactive

GGCLGICTAANLRSGNRITR
amyloid nucleation score: inactive

GGLLWAKCVMLILYYVPMGL
amyloid nucleation score: inactive

GHKVVL
amyloid nucleation score: inactive

GHLESVFRSVDTLVSYSS
amyloid nucleation score: 0.138 ± 0.55

GHNRYIDLSIEIRAL
amyloid nucleation score: -0.61 ± 1.1

GHVIMGLSGYGSLASLFKTG
amyloid nucleation score: inactive

GIAIDREKVVPIRGYLWSVT
amyloid nucleation score: inactive

GICHAACCCANVMYCSWHVR
amyloid nucleation score: 1 ± 0.16

GICIGTDKTFYCLGMSFF
amyloid nucleation score: inactive

GICKGNMYRFSMSYDSNLIM
amyloid nucleation score: inactive

GIFLSEWWLGSVSCVRTNVP
amyloid nucleation score: inactive

GILFYTHGRKDASD
amyloid nucleation score: -0.348 ± 0.5

GILIFTGYEDIFSCESDGSW
amyloid nucleation score: inactive

GISFSFRFLNENFHCVFRRA
amyloid nucleation score: inactive

GISTGISWQLCGHSGDWYWW
amyloid nucleation score: -0.658 ± 1.9

GIVNYRPAYP
amyloid nucleation score: inactive

GKDVSVGEVFKPLVSVRRVN
amyloid nucleation score: inactive

GKEKCTMNSHATLRVDVEMT
amyloid nucleation score: inactive

GKKNYLF
amyloid nucleation score: inactive

GKLLP
amyloid nucleation score: inactive

GKLTWIYIGIARPHEKMWLT
amyloid nucleation score: inactive

GKNKQLS
amyloid nucleation score: inactive

GKVSAFCMHGGYTCDLSVEL
amyloid nucleation score: inactive

GKWGWLIASWREFTS
amyloid nucleation score: inactive

GLALNWLCG
amyloid nucleation score: 0.026 ± 0.43

GLDLRTCGCYHSIP
amyloid nucleation score: inactive

GLEGLLVLWFQCSFTVAALR
amyloid nucleation score: inactive

GLFLRMLLRADPAKSWENRI
amyloid nucleation score: 0.238 ± 0.27

GLGSFLRQRRACPSGGTQ
amyloid nucleation score: inactive

GLHIRFQNYLRQGQ
amyloid nucleation score: 1.22 ± 0.17

GLKCGFRPSSVINSYWSSQL
amyloid nucleation score: inactive

GLKKWLFD
amyloid nucleation score: inactive

GLKWWLISASSVNFICVRYT
amyloid nucleation score: 0.104 ± 0.23

GLLAFKVLISKASVDFYNVS
amyloid nucleation score: -0.134 ± 0.4

GLLCFK
amyloid nucleation score: inactive

GLLNRIIVLYTLLNSDIRES
amyloid nucleation score: inactive

GLLSHLDHLWVCGGWGSRKR
amyloid nucleation score: inactive

GLNGIDLKLSVAGFVVFLGR
amyloid nucleation score: 1.48 ± 0.14

GLPFLSTMELLLLLMSKTMR
amyloid nucleation score: inactive

GLRGVDWVDREQLPGTVQGH
amyloid nucleation score: -0.589 ± 1.9

GLRKMRGLTQ
amyloid nucleation score: inactive

GLRTFIG
amyloid nucleation score: inactive

GLSMLGGLNDSRTCSLVSNV
amyloid nucleation score: inactive

GLSNRTFSMISSLVRDTKRS
amyloid nucleation score: inactive

GLTWFKSIKVYVECLFRLSN
amyloid nucleation score: inactive
